{"source": "paper PMC9207415", "assay": "SEC; TSK gel G3000SWXL, 100 mmol/L sodium phosphate with 100 mmol/L Na2SO4 (pH 6.8), isocratic, 0.4 ml/min, 25°C, UV at 280 nm; area percentages of monomer, oligomeric and truncated forms of the antibody solution (5 g/L in 10 mmol/L potassium phosphate pH 7.0)"}
{"substance": "NMIJ RM 6208a, AIST-MAB (humanized IgG1κ monoclonal antibody reference material)", "values": [{"measurement": "area percentage of the monomer peak", "result": "(93.7 ± 0.2) %"}]}
